We go through five molecules from patent publication US20220177587A1, “METHODS AND USES OF VARIANT CD80 FUSION PROTEINS AND RELATED CONSTRUCTS” (Alpine Immune Sciences, Inc., priority 2018, published 2022).

The target in assay [1] is T1, CD28 (Homo sapiens, UniProt P10747). The assay is described as follows: Flow binding to Jurkat/IL2 reporter cells (CD28). Set-up: host or cells: Jurkat cells expressing an IL-2-luciferase reporter. The settings on record: for CD28 MFI at 33.3 nM: Table E19, Jurkats (CD28). In a few lines:
(§1)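 Cells were first blocked in PBS with 1% BSA and 0.1% sodium azide. Primary staining with fusion protein ran 45 min on ice, and secondary staining with PE anti-human Fc at 1:150 ran 30 min on ice.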

Assay [2] has as its target T1, CD28. The assay is described as follows: Jurkat/IL2 + K562/OKT3 (no PD-L1) reporter assay of CD80 ECD-Fc (effector). It is filed as cell-based. The arrangement: host or cells: Jurkat cells expressing an IL-2-luciferase reporter. As to conditions: aAPC without PD-L1. As to the method:
The bioactivity of the generated molecules also was assessed using a Jurkat report assay as described in Examples 9 to assess CD28 costimulation of the molecules.

The next assay deals with huCTLA4 (Homo sapiens, UniProt P16410). The assay is described as follows: Flow binding to CHO cells stably expressing CTLA4. The arrangement: huCTLA4 and huPD-L1, full-length mammalian surface expression constructs were generated; expressed in transfected cells; host or cells: CHO cells, lentiviral transduction, sorted to >98% purity. As to conditions: for CTLA4 MFI at 33.3 nM: Table E19, CHO cells stably expressing CTLA4. The method in brief:
as §1

For a further assay, the target named is huPD-L1 (Homo sapiens, UniProt Q9NZQ7). Nature of the assay: Flow binding to CHO cells stably expressing PD-L1. The arrangement: huCTLA4 and huPD-L1, full-length mammalian surface expression constructs were generated; expressed in transfected cells; host or cells: CHO cells, lentiviral transduction, sorted to >98% purity. The settings on record: for PD-L1 MFI at 33.3 nM: Table E19, CHO cells stably expressing PD-L1. In a few lines: as §1
Chain of huPD-L1 (Q9NZQ7 19-290): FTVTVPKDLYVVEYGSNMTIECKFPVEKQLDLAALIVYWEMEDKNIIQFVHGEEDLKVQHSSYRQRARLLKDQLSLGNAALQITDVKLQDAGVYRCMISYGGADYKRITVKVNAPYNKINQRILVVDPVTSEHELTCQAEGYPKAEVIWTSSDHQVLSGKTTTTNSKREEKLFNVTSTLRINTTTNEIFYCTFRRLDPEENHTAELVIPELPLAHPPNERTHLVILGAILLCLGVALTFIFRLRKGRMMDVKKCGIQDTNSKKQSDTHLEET

The next assay relates to MC38 hPD-L1 tumor cells. The assay is described as follows: MC38 hPD-L1 tumor model in C57BL/6 mice. It counts as in vivo, mouse. As to the method:
Mouse MC38 tumor cells were stably transfected with human PD-L1 (MC38 hPD-L1) and implanted subcutaneously into C57BU6 mice. […] Tumor volume was tracked over time.
70 female C57CL/6 mice, containing similar tumor volumes of approximately 50-51 mm^3, following implantation of MC38 hPD-L1 tumor cells, were staged and divided into 5 treatment groups containing 14 mice each. […] Tumor volumes were measured on days 7, 10, and 12. On day 13, 5 animals were sacrificed for analysis as described in the sections below. Tumor measurements resumed for the remaining 9 mice for each group on days 17, 20 and 27. On days 26, 28, and 31, the animals in Group 1 (Fc isotype control) received an intratumoral injection of 100 μg E35D/M47L CD80-IgV-Fc.
95 female C57BU6 mice were implanted with MC38 hPD-L1 tumor cells. The tumors were staged on Day 7, and 77 mice with similar tumor volumes of approximately 60 mm^3 were divided into 7 treatment groups containing 11 mice each.
On day 49, tumor-free mice, from Groups 3, 4, 6, and 7, and 2 naïve C57CL/6 mice were re-challenged with an additional injection of hPD-L1 MC38 cells. Tumor volumes were measured on days 56, 59, and 63. The results are depicted in FIG. 13. […] At day 59, 8/8 mice from Group 3, 1/2 mice from Group 4, 1/1 mouse from Group 6, and 2/2 mice from Group 7 were tumor-free, and by day 63, all mice in Group 3, Group 4, Group 6, and Group 7 were tumor-free.
75 animals were staged into 3 treatment groups 7 days after implantation with hPD-L1 MC38 tumor cells. […] Tumor volumes were measured every 3-4 days, from Day 11 until Day 35. 3 days after the 1st dose, 2nd dose and 3rd dose, 4 mice from each group were sacrificed for tumor and LN analyses, leaving 13 mice for tumor volume measurements throughout the study period.

Assay [3] concerns the target T1, CD28. The assay is described as follows: Jurkat/IL2 reporter assay: blockade of CD28 costimulation (plate-bound anti-CD3/CD86-Fc). As to conditions: Table E5; protein diluted to 40 nM before mixing with cells; 5 hours. It is filed as cell-based. Set-up: host or cells: Jurkat cells expressing an IL-2-luciferase reporter. In a few lines: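 Readout is Bio-Glo luminescence after a 5 h, 37 °C stimulation of IL-2-luciferase Jurkat reporter cells on wells precoated (overnight, 4 °C) with anti-CD3 antibody and CD86-Fc. Cells were first mixed with CD80-Fc test proteins for 15 min at room temperature.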
(A reporter such as luciferase makes a cellular process visible.)

The target in assay [4] is T1, CD28. Nature of the assay: CD28 costimulation via Fc receptor or PD-L1 dependent cross-linking (Jurkat/IL2 + K562/OKT3 +/- PD-L1). The arrangement: host or cells: Jurkat cells expressing an IL-2-luciferase reporter. It is filed as cell-based. The settings on record: K562/0KT3 aAPC, luciferase signal. As to the method: In a further experiment, CD28 costimulation was assessed for variant CD80-IgV-Fc fusion proteins, where the Fc was an IgG1 Fc (e.g. SEQ ID NO:1517) capable of mediating effector activity via binding to Fc receptors (FcR). The experiment was carried out as described in part A above, except CD32-expressing K562 cells stably transduced with OKT3 (K562/OKT3) or OKT3 and PD-L1 (K562/OKT3/PD-L1) were used instead of the CHO/OKT3 and CHO/OKT3/PD-L1 cells, and the results are depicted in Table E9.

The target in assay [5] is T1, CD28. Nature of the assay: Jurkat/IL2 + CHO/OKT3 +/- PD-L1 reporter assay: PD-L1-dependent CD28 costimulation. It counts as cell-based. Set-up: host or cells: Jurkat cells expressing an IL-2-luciferase reporter. As to conditions: for PD-L1-Dependent CD28 Costimulation, +PD-L1, 0.6 nM / PD-L1-Dependent CD28 Costimulation, +PD-L1, 50 nM: CHO/OKT3/PD-L1 aAPC; for PD-L1-Dependent CD28 Costimulation, +PD-L1, 0.6 nM / PD-L1-Dependent CD28 Costimulation, +PD-L1, 50 nM / PD-L1-Dependent CD28 Costimulation, No PD-L1, 50 nM / PD-L1-Dependent CD28 Costimulation, No PD-L1, […]: luciferase signal; for PD-L1-Dependent CD28 Costimulation, No PD-L1, 50 nM / PD-L1-Dependent CD28 Costimulation, No PD-L1, […]: CHO/OKT3 aAPC. The method in brief: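 Readout is relative luminescence from lysed cocultures: test protein given 15 min at room temperature to Jurkat cells before adding CHO artificial APCs displaying OKT3 alone or OKT3 plus PD-L1, then 5 h at 37 °C, 5% CO2.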

[6] abbreviates: re-challenged on day 49 with hPD-L1 MC38 cells.

Chain of huCTLA4 (P16410 36-223): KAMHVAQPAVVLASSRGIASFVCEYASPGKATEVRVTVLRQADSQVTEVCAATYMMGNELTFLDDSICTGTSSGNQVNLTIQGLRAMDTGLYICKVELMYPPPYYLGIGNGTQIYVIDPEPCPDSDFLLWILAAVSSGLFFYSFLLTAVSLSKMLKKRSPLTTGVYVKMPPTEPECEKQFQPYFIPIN

B1: CD80 (A91G/I118V/T120S/T130A) ECD-Fc: variant full CD80 ECD fused to effector human IgG1 Fc (SEQ ID NO:1527) (protein)
chain: VIHVTKEVKEVATLSCGHNVSVEELAQTRIYWQKEKKMVLTMMSGDMNIWPEYKNRTIFDITNNLSIVILALRPSDEGTYECVVLKYEKDGFKREHLAEVTLSVKADFPTPSISDFEVPSSNIRRIICSASGGFPEPHLSWLENGEELNAINTTVSQDPETELYAVSSKLDFNMTTNHSFMCLIKYGHLRVNQTFNWNTTKQEHFPDN
On to B1, for which, in the assay with CD28 [1] (66.7 nM), the “Jurkat/CD28 MFI at 66.7 nM” value amounted to 720. For the same molecule, the EC50 was more than 200 nM with CD28 [1] (flow binding, read-out: Jurkat/CD28 EC50) and 4.3 nM with huCTLA4 (flow binding). In the assay with CD28 [2] (98 pM), the “Relative Luminescence at 98 pM” value is 1098 RLU. In addition, in the assay with CD28 [2] (391 pM), the “Relative Luminescence at 391 pM” value is on record as 1119 RLU. The “Relative Luminescence at 1563 pM” value with CD28 [2] (1563 pM) is given as 1288 RLU. Moreover, the “Relative Luminescence at 6250 pM” value with CD28 [2] (6250 pM) turned out to be 1761 RLU. For the same molecule, the “Relative Luminescence at 25000 pM” value in the assay with CD28 [2] (25000 pM) is 2209 RLU. Also, in the assay with CD28 [2] (100000 pM), the “Relative Luminescence at 100000 pM” value is recorded as 2750 RLU. In the assay with huCTLA4 (66.7 nM), the “CHO/CTLA4 MFI at 66.7 nM” value is given as 24801. For the same molecule, the “CHO/PD-L1 MFI at 66.7 nM” value with huPD-L1 (66.7 nM) is reported as 107.

B2: E35D/M47L: variant CD80 IgV-Fc, IgV SEQ ID NO:208 (protein)
chain: VIHVTKEVKEVATLSCGHNVSVEELAQTRIYWQKDKKMVLTMMSGDLNIWPEYKNRTIFDITNNLSIVILALRPSDEGTYECVVLKYEKDAFKREHLAEVTLSVKAD
Turning to B2, the “mice with no detectable tumors (tumor-free) upon completion of the study” value in the assay with MC38 hPD-L1 tumor cells (100 μg on days 7, 9 and 11, 11 mice per group) is listed as 1 mice. Moreover, the “tumor growth / tumor volume” value in the assay with MC38 hPD-L1 tumor cells (i.p. dosing, compared to Fc control or anti-PD-L1) was “dose-dependent decrease in tumor volumes”. In addition, in the assay on MC38 hPD-L1 tumor cells (setting [6]), the “tumor-free mice after re-challenge, day 59” value is given as 1/1 and the “tumor-free mice after re-challenge, day 63” value is on record as “tumor-free”. Moreover, the “CD28 MFI at 33.3 nM” value with CD28 [1] amounted to 411. Further, in the assay with CD28 [3], the “Average Relative Luminescence Units” value is given as 1110 Relative Luminescence Units. For the same molecule, in the assay with CD28 [4], the “CD28 costimulation, FcR Dependent Cross-Linking (No PD-L1), 0.6 nM” value (from here on “CD28 costimulation … (No PD-L1), 0.6 nM”) is 2119 and the “CD28 costimulation, FcR Dependent Cross-Linking (No PD-L1), 50 nM” value (from here on “CD28 costimulation … (No PD-L1), 50 nM”) came to 8685. The “CTLA4 MFI at 33.3 nM” value with huCTLA4 was 48010. Besides, the “PD-L1 MFI at 33.3 nM” value in the assay with huPD-L1 is reported as 7529.

B3: E23G/A26S/E35D/T62N/A71D/L72V/L85M: variant CD80 IgV-Fc, IgV SEQ ID NO:216 (protein)
chain: VIHVTKEVKEVATLSCGHNVSVGELSQTRIYWQKDKKMVLTMMSGDMNIWPEYKNRTIFDINNNLSIVILDVRPSDEGTYECVVMKYEKDAFKREHLAEVTLSVKAD
As for B3, the “Average Relative Luminescence Units” value with CD28 [3] is given as 2067 Relative Luminescence Units. In the assay with CD28 [5], the “PD-L1-Dependent CD28 Costimulation, +PD-L1, 0.6 nM” value was determined as 524; the “PD-L1-Dependent CD28 Costimulation, +PD-L1, 50 nM” value was determined as 695; the “PD-L1-Dependent CD28 Costimulation, No PD-L1, 50 nM” value was found to be 606; the “PD-L1-Dependent CD28 Costimulation, No PD-L1, […]” value was found to be 566. Moreover, in the assay with CD28 [4], the “CD28 costimulation … (No PD-L1), 0.6 nM” value is given as 2022 and the “CD28 costimulation … (No PD-L1), 50 nM” value came to 7855.

B4: E35D/D46V/L85Q: variant CD80 IgV-Fc, IgV SEQ ID NO:203 (protein)
chain: VIHVTKEVKEVATLSCGHNVSVEELAQTRIYWQKDKKMVLTMMSGVMNIWPEYKNRTIFDITNNLSIVILALRPSDEGTYECVVQKYEKDAFKREHLAEVTLSVKAD
Regarding B4, in the assay with CD28 [1], the “CD28 MFI at 33.3 nM” value is 196. For the same molecule, the “Average Relative Luminescence Units” value in the assay with CD28 [3] is on record as 3230 Relative Luminescence Units. Further, in the assay with CD28 [5], the “PD-L1-Dependent CD28 Costimulation, +PD-L1, 0.6 nM” value is 611; the “PD-L1-Dependent CD28 Costimulation, +PD-L1, 50 nM” value is recorded as 2224; the “PD-L1-Dependent CD28 Costimulation, No PD-L1, 50 nM” value turned out to be 720; the “PD-L1-Dependent CD28 Costimulation, No PD-L1, […]” value was found to be 511. For the same molecule, the “Relative Luciferase Units (RLU), CD80 Conc 5.0 nM” value with CD28 [5] (Table E21, Jurkat/IL2 + CHO/OKT3/PD-L1, CD80 Conc 5.0 nM) is 410 RLU. Also, in the assay with CD28 [4], the “CD28 costimulation … (No PD-L1), 0.6 nM” value is recorded as 1880 and the “CD28 costimulation … (No PD-L1), 50 nM” value is 7015. Moreover, the “CTLA4 MFI at 33.3 nM” value in the assay with huCTLA4 turned out to be 48005. Further, the “PD-L1 MFI at 33.3 nM” value in the assay with huPD-L1 is 4039.

B5: A71D/L72V/E95K: variant CD80 IgV-Fc, IgV SEQ ID NO:192 (protein)
chain: VIHVTKEVKEVATLSCGHNVSVEELAQTRIYWQKEKKMVLTMMSGDMNIWPEYKNRTIFDITNNLSIVILDVRPSDEGTYECVVLKYEKDAFKRKHLAEVTLSVKAD
In the case of B5, the “Average Relative Luminescence Units” value with CD28 [3] is given as 2939 Relative Luminescence Units. Further, in the assay with CD28 [5], the “PD-L1-Dependent CD28 Costimulation, +PD-L1, 0.6 nM” value turned out to be 524; the “PD-L1-Dependent CD28 Costimulation, +PD-L1, 50 nM” value came to 755; the “PD-L1-Dependent CD28 Costimulation, No PD-L1, 50 nM” value came to 644; the “PD-L1-Dependent CD28 Costimulation, No PD-L1, […]” value was found to be 466. Further, in the assay with CD28 [4], the “CD28 costimulation … (No PD-L1), 0.6 nM” value is reported as 1821 and the “CD28 costimulation … (No PD-L1), 50 nM” value stood at 7109.
